From IntAct's records for PubMed 21697476

B1: Replication and transcription activator (Epstein-Barr virus (strain B95-8) (HHV-4)), P03209 (parent)
chain: MRPKKDGLEDFLRLTPEIKKQLGSLVSDYCNVLNKEFTAGSVEITLRSYKICKAFINEAKAHGREWGGLMATLNICNFWAILRNNRVRRRAENAGNDACSIACPIVMRYVLDHLIVVTDRFFIQAPSNRVMIPATIGTAMYKLLKHSRVRAYTYSKVLGVDRAAIMASGKQVVEHLNRMEKEGLLSSKFKAFCKWVFTYPVLEEMFQTMVSSKTGHLTDDVKDVRALIKTLPRASYSSHAGQRSYVSGVLPACLLSTKSKAVETPILVSGADRMDEELMGNDGGASHTEARYSESGQFHAFTDELESLPSPTMPLKPGAQSADCGDSSSSSSDSGNSDTEQSEREEARAEAPRLRAPKSRRTSRPNRGQTPCPSNAAEPEQPWIAAVHQESDERPIFPHPSKPTFLPPVKRKKGLRDSREGMFLPKPEAGSAISDVFEGREVCQPKRIRPFHPPGSPWANRPLPASLAPTPTGPVHEPVGSLTPAPVPQPLDPAPAVTPEASHLLEDPDEETSQAVKALREMADTVIPQKEEAAICGQMDLSHPPPRGHLDELTTTLESMTEDLNLDSPLTPELNEILDTFLNDECLLHAMHISTGLSIFDTSLF

Variants of: B1
Details: with po2f1_human POU2F1, P14859
Sequence of po2f1_human POU2F1, P14859 (P14859 whole entry): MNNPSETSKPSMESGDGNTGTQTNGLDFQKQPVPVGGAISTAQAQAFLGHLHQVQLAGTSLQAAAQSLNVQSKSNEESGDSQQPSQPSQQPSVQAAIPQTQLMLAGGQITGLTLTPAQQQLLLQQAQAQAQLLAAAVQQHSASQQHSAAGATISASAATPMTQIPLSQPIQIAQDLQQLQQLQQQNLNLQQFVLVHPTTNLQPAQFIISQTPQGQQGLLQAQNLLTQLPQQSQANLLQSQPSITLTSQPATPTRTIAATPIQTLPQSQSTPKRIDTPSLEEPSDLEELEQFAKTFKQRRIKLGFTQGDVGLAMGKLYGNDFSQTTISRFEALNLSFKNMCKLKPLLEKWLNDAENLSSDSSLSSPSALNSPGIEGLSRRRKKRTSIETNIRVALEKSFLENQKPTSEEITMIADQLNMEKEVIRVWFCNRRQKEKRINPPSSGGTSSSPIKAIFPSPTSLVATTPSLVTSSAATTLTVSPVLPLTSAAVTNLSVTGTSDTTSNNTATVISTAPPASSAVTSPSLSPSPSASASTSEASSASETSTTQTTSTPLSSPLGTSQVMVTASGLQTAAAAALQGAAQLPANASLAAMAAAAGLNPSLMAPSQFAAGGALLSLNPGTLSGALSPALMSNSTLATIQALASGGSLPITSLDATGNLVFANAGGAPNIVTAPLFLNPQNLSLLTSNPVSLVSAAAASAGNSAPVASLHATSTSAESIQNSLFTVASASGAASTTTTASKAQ

| Variant | effect of a mutation on the interaction |
| --- | --- |
| M140A | decreasing interaction |
